This assay has as its target clade B MN gp41 monomer (HIV-1 clade B, strain MN) (UniProt P05877). Briefly: endpoint ELISA, plate-coated MN gp41.
Chain of UniProt P05877 (P05877 514-856 limits assumed): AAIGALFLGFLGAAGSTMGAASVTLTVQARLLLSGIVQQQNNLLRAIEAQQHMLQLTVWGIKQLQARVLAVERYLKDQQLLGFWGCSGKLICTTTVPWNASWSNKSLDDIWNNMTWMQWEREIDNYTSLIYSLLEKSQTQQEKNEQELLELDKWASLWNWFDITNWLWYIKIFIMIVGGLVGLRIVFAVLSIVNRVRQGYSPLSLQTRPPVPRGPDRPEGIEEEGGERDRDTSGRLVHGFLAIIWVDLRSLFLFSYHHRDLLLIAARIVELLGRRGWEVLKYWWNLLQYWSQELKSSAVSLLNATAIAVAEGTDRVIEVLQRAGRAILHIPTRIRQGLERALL

240-D (antibody): the endpoint titer amounted to 78.1 ng/mL.

These data come from patent US20220154170A1.
